Source: PMC6028955 (The Journal of Biological Chemistry, 2018)

Target: the molecule itself
Experiment: AUC; sedimentation velocity (4 °C, 49,000 rpm) and sedimentation equilibrium; 25 mM Tris-HCl pH 7.6, 200 mM NaCl, 2 mM TCEP; SE fitted with a single species model

B1: human SSRP1 lacking the C-terminal ID regions and the HMG domain (residues 1–433) (domain or fragment, UniProt Q08945 1-433, looked up)
chain: MAETLEFNDVYQEVKGSMNDGRLRLSRQGIIFKNSKTGKVDNIQAGELTEGIWRRVALGHGLKLLTKNGHVYKYDGFRESEFEKLSDFFKTHYRLELMEKDLCVKGWNWGTVKFGGQLLSFDIGDQPVFEIPLSNVSQCTTGKNEVTLEFHQNDDAEVSLMEVRFYVPPTQEDGVDPVEAFAQNVLSKADVIQATGDAICIFRELQCLTPRGRYDIRIYPTFLHLHGKTFDYKIPYTTVLRLFLLPHKDQRQMFFVISLDPPIKQGQTRYHFLILLFSKDEDISLTLNMNEEEVEKRFEGRLTKNMSGSLYEMVSRVMKALVNRKITVPGNFQGHSGAQCITCSYKASSGLLYPLERGFIYVHKPPVHIRFDEISFVNFARGTTTTRSFDFEIETKQGTQYTFSSIEREEYGKLFDFVNAKKLNIKNRGLKEG
notes: structure-specific recognition protein-1 (SSRP1), human, residues 1–433 (PH1–PH4; lacks ID1, HMG, ID2); Homodimer by sedimentation equilibrium; predicted monomer mass 49.8 kDa; also called hSSRP1ΔCTD; hSSRP1; source: E. coli BL21 (DE3) Gold, purified (Ni-NTA, TEV treatment, anion-exchange, size-exclusion chromatography); not shown: His6, N-terminal, cleaved
- stoichiometry N: 2
